Test [1] has as its target T1, KGN-SRD3c (N-terminal portion of Kusabira Green protein fused with SRD3c) (human, UniProt Q9Y618 1281-1504).
T1 construct: human SMRT, SRD3c region, amino acid 1281 to 1504; The methods say that KGN-MC-SRD3c was made in the KGC-MC vector; also called KGN-MC-SRD3c; source: HEK293, transfected, in cells or lysate
The test is described as follows: split reporter (BiFC, NanoBiT); quantitative BiFC (Kusabira Green, Fluo-Chase kit): KGN-SRD3c and KGC-HDAC coexpressed in HEK293, 48 h; fluorescence of cell lysates by spectrophotometer (ex 494 nm, em 538 nm). To be noted: partners not purified.

Test [2] deals with HA-HDAC4c, wild type, expressed in HEK293 cells (human, UniProt P56524 650-1055). The test is described as follows: cell-based or functional assay.

T1 sequence (Q9Y618 1281-1504): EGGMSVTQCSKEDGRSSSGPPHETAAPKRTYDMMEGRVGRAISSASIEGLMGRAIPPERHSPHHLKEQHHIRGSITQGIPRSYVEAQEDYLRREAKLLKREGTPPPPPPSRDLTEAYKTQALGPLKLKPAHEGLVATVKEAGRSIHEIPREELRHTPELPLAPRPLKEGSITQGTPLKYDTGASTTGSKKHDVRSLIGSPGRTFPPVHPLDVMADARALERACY

B1: KGC-HDAC5c (C-terminal portion of Kusabira Green protein fused with HDAC5c), wild type (domain or fragment, human, UniProt Q9UQL6 680-1087, looked up)
chain: LFTTGVVYDTFMLKHQCMCGNTHVHPEHAGRIQSIWSRLQETGLLSKCERIRGRKATLDEIQTVHSEYHTLLYGTSPLNRQKLDSKKLLGPISQKMYAVLPCGGIGVDSDTVWNEMHSSSAVRMAVGCLLELAFKVAAGELKNGFAIIRPPGHHAEESTAMGFCFFNSVAITAKLLQQKLNVGKVLIVDWDIHHGNGTQQAFYNDPSVLYISLHRYDNGNFFPGSGAPEEVGGGPGVGYNVNVAWTGGVDPPIGDVEYLTAFRTVVMPIAHEFSPDVVLVSAGFDAVEGHLSPLGGYSVTARCFGHLTRQLMTLAGGRVVLALEGGHDLTAICDASEACVSALLSVELQPLDEAVLQQKPNINAVATLEKVIEIQSKHWSCVQKFAAGLGRSLREAQAGETEEAETVS
notes: human HDAC5 catalytic domain, amino acids 680 to 1087; also called KGC-MC-HDAC5c; source: HEK293, transfected, in cells or lysate
As to B1, the “fold increase of the BiFC fluorescent signal over the KGC empty vector” value in test [1] was around 2 fold.

B2: Human HDAC3 (enzyme, UniProt O15379 1-428, looked up)
chain: MAKTVAYFYDPDVGNFHYGAGHPMKPHRLALTHSLVLHYGLYKKMIVFKPYQASQHDMCRFHSEDYIDFLQRVSPTNMQGFTKSLNAFNVGDDCPVFPGLFEFCSRYTGASLQGATQLNNKICDIAINWAGGLHHAKKFEASGFCYVNDIVIGILELLKYHPRVLYIDIDIHHGDGVQEAFYLTDRVMTVSFHKYGNYFFPGTGDMYEVGAESGRYYCLNVPLRDGIDDQSYKHLFQPVINQVVDFYQPTCIVLQCGADSLGCDRLGCFNLSIRGHGECVEYVKSFNIPLLVLGGGGYTVRNVARCWTYETSLLVEEAISEELPYSEYFEYFAPDFTLHPDVSTRIENQNSRQYLDQIRQTIFENLKMLNHAPSVQIHDVPADLLTYDRTDEADAEERGPEENYSRPEAPNEFYDGDHDNDKESDVEI
In the case of B2, in test [2], the “fold repression of a Gal4-tk-luciferase reporter by Gal4N-fused wild-type HDAC4c (50 and 100 ng plasmid) in HEK293 cells; endogenous SMRT-HDAC3 complex” value is 7 fold.

B3: KGC-HDAC4c (C-terminal portion of Kusabira Green protein fused with HDAC4c), wild type (domain or fragment, human, UniProt P56524 650-1055, looked up)
chain: PRFTTGLVYDTLMLKHQCTCGSSSSHPEHAGRIQSIWSRLQETGLRGKCECIRGRKATLEELQTVHSEAHTLLYGTNPLNRQKLDSKKLLGSLASVFVRLPCGGVGVDSDTIWNEVHSAGAARLAVGCVVELVFKVATGELKNGFAVVRPPGHHAEESTPMGFCYFNSVAVAAKLLQQRLSVSKILIVDWDVHHGNGTQQAFYSDPSVLYMSLHRYDDGNFFPGSGAPDEVGTGPGVGFNVNMAFTGGLDPPMGDAEYLAAFRTVVMPIASEFAPDVVLVSSGFDAVEGHPTPLGGYNLSARCFGYLTKQLMGLAGGRIVLALEGGHDLTAICDASEACVSALLGNELDPLPEKVLQQRPNANAVRSMEKVMEIHSKYWRCLQRTTSTAGRSLIEAQTCENEEAET
notes: also called KGC-MC-HDAC4c; source: HEK293, transfected, in cells or lysate
Take B3: in test [1], the “fold increase of the BiFC fluorescent signal over the KGC empty vector” value was around 2 fold.

Values taken from publication PMC4498904, “Mutagenesis Study Reveals the Rim of Catalytic Entry Site of HDAC4 and -5 as the Major Binding Surface of SMRT Corepressor” (PLoS ONE, 2015).
